This is an account of results in article PMC10008584, “Cryo-EM structures of human Cx36/GJD2 neuronal gap junction channel” (Nature Communications, 2023).

Data set [1] addresses BRIL-fused human Cx36 (cytoplasmic loop residues 109-187 replaced with cytochrome b562RIL) (UniProt Q9UKL4). The data set can be described thus: cryo-EM structure; single-particle cryo-EM of the purified gap junction channel in LMNG/CHS detergent; D6 symmetry; 50 mM phenylalanine added for Cx36-WT.
Data set [2] deals with the molecule itself. The data set can be described thus: cryo-EM structure; single-particle cryo-EM of the purified gap junction channel in MSP1E1 nanodiscs with soybean polar lipid extract; D6, C6 or C1 symmetry; 50 mM phenylalanine added for Cx36-WT.
Data set [3] deals with the molecule itself. The data set can be described thus: cryo-EM structure; single-particle cryo-EM of the purified gap junction channel in LMNG/CHS detergent; D6 symmetry; 50 mM phenylalanine added for Cx36-WT.

Take “BRIL-fused human Cx36 (cytoplasmic loop residues 109-187 replaced with cytochrome b562RIL) (from UniProt Q9UKL4 1-108; P0ABE7 21-128; Q9UKL4 188-321)”: the stoichiometry N in data set [1] turned out to be 12.

B1: Human Cx36 with N-terminal residues 2-8 deleted (natural protein, UniProt Q9UKL4 1-321, looked up)
chain: MRLLEAAVQQHSTMIGRILLTVVVIFRILIVAIVGETVYDDEQTMFVCNTLQPGCNQACYDRAFPISHIRYWVFQIIMVCTPSLCFITYSVHQSAKQRERRYSTVFLALDRDPPESIGGPGGTGGGGSGGGKREDKKLQNAIVNGVLQNTENTSKETEPDCLEVKELTPHPSGLRTASKSKLRRQEGISRFYIIQVVFRNALEIGFLVGQYFLYGFSVPGLYECNRYPCIKEVECYVSRPTEKTVFLVFMFAVSGICVVLNLAELNHLGWRKIKLAVRGAQAKRKSIYEIRNKDLPRVSVPNFGRTQSSDSAYV
notes: Connexin 36 (Cx36, GJD2), human, full length with 7 N-terminal residues (2-8) deleted; Made by PCR from pXY-Cx36-WT; expressed and purified by the same protocol as Cx36-WT; also called Cx36-ΔN8; Cx36_(Nano)-ΔN8; source: HEK293E, transiently transfected, purified as Cx36-WT; reconstituted in MSP1E1 soybean lipid nanodiscs; not shown: eYFP, C-terminal, cleaved; 10xHis, C-terminal, cleaved; copies: …
Regarding B1, in data set [2], the binding result is “binds”.

B2: Wild-type human connexin 36 (Cx36/GJD2) gap junction channel (natural protein, UniProt Q9UKL4 1-321, looked up)
chain: MGEWTILERLLEAAVQQHSTMIGRILLTVVVIFRILIVAIVGETVYDDEQTMFVCNTLQPGCNQACYDRAFPISHIRYWVFQIIMVCTPSLCFITYSVHQSAKQRERRYSTVFLALDRDPPESIGGPGGTGGGGSGGGKREDKKLQNAIVNGVLQNTENTSKETEPDCLEVKELTPHPSGLRTASKSKLRRQEGISRFYIIQVVFRNALEIGFLVGQYFLYGFSVPGLYECNRYPCIKEVECYVSRPTEKTVFLVFMFAVSGICVVLNLAELNHLGWRKIKLAVRGAQAKRKSIYEIRNKDLPRVSVPNFGRTQSSDSAYV
notes: Connexin 36 (Cx36, GJD2), human, full length (Met1-Val321); The tags were cut off at an HRV 3C site between Cx36 and eYFP; residues of the site may be left at the C-terminus; also called Cx36-WT; Cx36_(LMNG)-WT; source: HEK293E, transiently transfected, purified (Rho-1D4 antibody resin, HRV 3C cleavage, Superose 6 Increase SEC); in LMNG/CHS or reconstituted in MSP1E1 soybean lipid nanodiscs; not …
On to B2, for which, in data set [3], the “stoichiometry N” value amounted to 12.
